{
  "source": "the RNAGym collection of RNA variant scans (doi:10.7554/elife.80360)",
  "parents": {"B1": {"name": "Hairpin Ribozyme (parent)", "chain": "GUCCUCUUUCACGUGCGCGUGAAAGAGAGAAGUGAACCAGAGAAACACACGUUGUGGUAUAUUACCUGGUA"}},
  "data": [
    {"variants_of": "B1", "assay": "self-cleavage, relative activity (ratio to wild type); higher = more cleavage; co-transcriptional", "values": [
      {"variant": "U2C U7A", "self-cleavage": 0.119},
      {"variant": "U2C G32U", "self-cleavage": 0.183},
      {"variant": "U2A A41U", "self-cleavage": 0.54},
      {"variant": "U2C A71U", "self-cleavage": 0.2},
      {"variant": "U2C A71G", "self-cleavage": 0.125},
      {"variant": "U2C A45G", "self-cleavage": 0.0514},
      {"variant": "U2C A45C", "self-cleavage": 0.0982},
      {"variant": "G1C A35U", "self-cleavage": 0.254},
      {"variant": "G1C U20G", "self-cleavage": 0.0342},
      {"variant": "U2C A26G", "self-cleavage": 0.121},
      {"variant": "U2C A26C", "self-cleavage": 0.0664},
      {"variant": "G1C A64U", "self-cleavage": 0.107},
      {"variant": "G1C A64G", "self-cleavage": 0.143},
      {"variant": "G1A U58G", "self-cleavage": 0.256},
      {"variant": "G1A U58A", "self-cleavage": 0.186},
      {"variant": "U2A G25C", "self-cleavage": 0.171},
      {"variant": "G1C C50G", "self-cleavage": 0.171},
      {"variant": "U2A C16A", "self-cleavage": 0.221},
      {"variant": "U2A C16U", "self-cleavage": 0.259},
      {"variant": "G1A U70C", "self-cleavage": 0.154},
      {"variant": "G1A U70A", "self-cleavage": 0.198},
      {"variant": "G1U U67G", "self-cleavage": 0.097},
      {"variant": "G1U U67C", "self-cleavage": 0.0702},
      {"variant": "G1A G56A", "self-cleavage": 0.181},
      {"variant": "G1C A24C", "self-cleavage": 0.32},
      {"variant": "G1A A39C", "self-cleavage": 0.138},
      {"variant": "G1A A39G", "self-cleavage": 0.152},
      {"variant": "G1U U58C", "self-cleavage": 0.0791},
      {"variant": "U2A A47U", "self-cleavage": 0.0626},
      {"variant": "U2A G51U", "self-cleavage": 0.228},
      {"variant": "U2A A31U", "self-cleavage": 0.163},
      {"variant": "U2A A31G", "self-cleavage": 0.334},
      {"variant": "U2C G15U", "self-cleavage": 0.117},
      {"variant": "U2C G15A", "self-cleavage": 0.126},
      {"variant": "G1A A49U", "self-cleavage": 0.061},
      {"variant": "G1A A49C", "self-cleavage": 0.0908},
      {"variant": "G1U G69C", "self-cleavage": 0.0943},
      {"variant": "G1U G69U", "self-cleavage": 0.101},
      {"variant": "U2C A61G", "self-cleavage": 0.0293},
      {"variant": "G1U G27U", "self-cleavage": 0.199},
      {"variant": "G1A U9G", "self-cleavage": 0.293},
      {"variant": "G1A U9A", "self-cleavage": 0.198},
      {"variant": "G1A U9C", "self-cleavage": 0.167},
      {"variant": "U2A C18G", "self-cleavage": 0.212},
      {"variant": "U2C A28U", "self-cleavage": 0.0802},
      {"variant": "U2A U33A", "self-cleavage": 0.077},
      {"variant": "G1C U60C", "self-cleavage": 0.314},
      {"variant": "G1U G29U", "self-cleavage": 0.154},
      {"variant": "G1U G29C", "self-cleavage": 0.109},
      {"variant": "G1U G29A", "self-cleavage": 0.08},
      {"variant": "G1C U53G", "self-cleavage": 0.046},
      {"variant": "G1U C16U", "self-cleavage": 0.0937},
      {"variant": "G1U C16G", "self-cleavage": 0.127},
      {"variant": "G1U C38U", "self-cleavage": 0.127},
      {"variant": "G1U C38G", "self-cleavage": 0.0981},
      {"variant": "G1A G42C", "self-cleavage": 0.213},
      {"variant": "U2C G17U", "self-cleavage": 0.1},
      {"variant": "U2C G42C", "self-cleavage": 0.108},
      {"variant": "G1U A23U", "self-cleavage": 0.11},
      {"variant": "U2A A11C", "self-cleavage": 0.288},
      {"variant": "G1A C65U", "self-cleavage": 0.0307},
      {"variant": "G1A C65G", "self-cleavage": 0.0867},
      {"variant": "G1A C65A", "self-cleavage": 0.285},
      {"variant": "G1U C6A", "self-cleavage": 0.138},
      {"variant": "G1U C6G", "self-cleavage": 0.228},
      {"variant": "U2A G17A", "self-cleavage": 0.274},
      {"variant": "G1C C4G", "self-cleavage": 0.301},
      {"variant": "G1C C48A", "self-cleavage": 0.129},
      {"variant": "U2A G15A", "self-cleavage": 0.216},
      {"variant": "G1C A26U", "self-cleavage": 0.18},
      {"variant": "U2C U20G", "self-cleavage": 0.0615},
      {"variant": "U2C U20A", "self-cleavage": 0.25},
      {"variant": "G1U A28G", "self-cleavage": 0.0771},
      {"variant": "G1U C50A", "self-cleavage": 0.189},
      {"variant": "G1A A36G", "self-cleavage": 0.088},
      {"variant": "G1U U55C", "self-cleavage": 0.217},
      {"variant": "U2A U60A", "self-cleavage": 0.175},
      {"variant": "G1A U7G", "self-cleavage": 0.148},
      {"variant": "G1C A59C", "self-cleavage": 0.113},
      {"variant": "G1C A43G", "self-cleavage": 0.113},
      {"variant": "G1C G32C", "self-cleavage": 0.116},
      {"variant": "U2C A41U", "self-cleavage": 0.283},
      {"variant": "G1U G68C", "self-cleavage": 0.0827},
      {"variant": "G1U G68U", "self-cleavage": 0.051},
      {"variant": "G1U G68A", "self-cleavage": 0.124},
      {"variant": "U2C G21A", "self-cleavage": 0.0868},
      {"variant": "G1A A31G", "self-cleavage": 0.136},
      {"variant": "G1A G21A", "self-cleavage": 0.154},
      {"variant": "G1A G21U", "self-cleavage": 0.127},
      {"variant": "G1U U52A", "self-cleavage": 0.0595},
      {"variant": "G1A C16U", "self-cleavage": 0.217},
      {"variant": "G1C G19A", "self-cleavage": 0.197},
      {"variant": "G1A U20G", "self-cleavage": 0.188},
      {"variant": "G1A U20C", "self-cleavage": 0.188},
      {"variant": "G1U A41C", "self-cleavage": 0.0514},
      {"variant": "G1U A41U", "self-cleavage": 0.0959},
      {"variant": "G1A G13C", "self-cleavage": 0.119},
      {"variant": "G1A G13U", "self-cleavage": 0.208},
      {"variant": "U2C", "self-cleavage": 0.171},
      {"variant": "U2A", "self-cleavage": 0.259},
      {"variant": "U2A G19A", "self-cleavage": 0.216},
      {"variant": "U2A G19C", "self-cleavage": 0.106},
      {"variant": "G1A A71G", "self-cleavage": 0.205},
      {"variant": "G1U U2A", "self-cleavage": 0.11},
      {"variant": "G1C G68U", "self-cleavage": 0.209},
      {"variant": "G1C G68C", "self-cleavage": 0.379},
      {"variant": "G1A A43U", "self-cleavage": 0.0738},
      {"variant": "G1A A43G", "self-cleavage": 0.2},
      {"variant": "G1U G15C", "self-cleavage": 0.0726},
      {"variant": "G1U G15U", "self-cleavage": 0.102},
      {"variant": "U2C A47C", "self-cleavage": 0.0817},
      {"variant": "U2A A45U", "self-cleavage": 0.0686},
      {"variant": "U2C A11U", "self-cleavage": 0.197},
      {"variant": "U2C C48G", "self-cleavage": 0.108},
      {"variant": "U2C C48U", "self-cleavage": 0.0586},
      {"variant": "G1C U8C", "self-cleavage": 0.172},
      {"variant": "G1A U60A", "self-cleavage": 0.188},
      {"variant": "G1C G29A", "self-cleavage": 0.174},
      {"variant": "U2A C50A", "self-cleavage": 0.219},
      {"variant": "G1U C66A", "self-cleavage": 0.242},
      {"variant": "G1U C66G", "self-cleavage": 0.117},
      {"variant": "G1U A36U", "self-cleavage": 0.224},
      {"variant": "U2A C4G", "self-cleavage": 0.0724},
      {"variant": "U2A C66G", "self-cleavage": 0.161},
      {"variant": "U2A C66U", "self-cleavage": 0.127},
      {"variant": "G1C A11G", "self-cleavage": 0.194},
      {"variant": "G1C A11C", "self-cleavage": 0.0386},
      {"variant": "G1C A44G", "self-cleavage": 0.0352},
      {"variant": "U2A G68U", "self-cleavage": 0.133},
      {"variant": "U2A G68A", "self-cleavage": 0.0992},
      {"variant": "G1C A36U", "self-cleavage": 0.338},
      {"variant": "U2A C46A", "self-cleavage": 0.143},
      {"variant": "U2A C37U", "self-cleavage": 0.23},
      {"variant": "G1C G17U", "self-cleavage": 0.204},
      {"variant": "U2A G57A", "self-cleavage": 0.136},
      {"variant": "G1A G32C", "self-cleavage": 0.318},
      {"variant": "U2C C16A", "self-cleavage": 0.0439},
      {"variant": "G1U A44G", "self-cleavage": 0.0639},
      {"variant": "G1U U63G", "self-cleavage": 0.0703},
      {"variant": "G1A A26G", "self-cleavage": 0.149},
      {"variant": "G1A A26U", "self-cleavage": 0.11},
      {"variant": "U2A G54U", "self-cleavage": 0.119},
      {"variant": "G1A A11U", "self-cleavage": 0.302},
      {"variant": "G1U U14G", "self-cleavage": 0.184},
      {"variant": "U2C U53A", "self-cleavage": 0.322},
      {"variant": "G1C G27U", "self-cleavage": 0.142},
      {"variant": "G1C C65U", "self-cleavage": 0.188},
      {"variant": "G1A C37G", "self-cleavage": 0.187},
      {"variant": "G1C U70A", "self-cleavage": 0.208},
      {"variant": "G1C U70C", "self-cleavage": 0.155},
      {"variant": "G1C U70G", "self-cleavage": 0.166},
      {"variant": "G1C U2C", "self-cleavage": 0.233},
      {"variant": "G1A A44C", "self-cleavage": 0.2},
      {"variant": "G1A A44G", "self-cleavage": 0.167},
      {"variant": "G1U G40A", "self-cleavage": 0.123},
      {"variant": "G1U G40U", "self-cleavage": 0.111},
      {"variant": "G1U U8C", "self-cleavage": 0.118},
      {"variant": "G1U C12G", "self-cleavage": 0.171},
      {"variant": "G1U C12U", "self-cleavage": 0.17},
      {"variant": "G1U A49G", "self-cleavage": 0.234},
      {"variant": "U2A A30G", "self-cleavage": 0.442},
      {"variant": "G1A U5A", "self-cleavage": 0.152},
      {"variant": "G1C U58A", "self-cleavage": 0.131},
      {"variant": "U2A A36C", "self-cleavage": 0.143},
      {"variant": "G1C U52G", "self-cleavage": 0.206},
      {"variant": "U2C G13A", "self-cleavage": 0.217},
      {"variant": "G1C G57U", "self-cleavage": 0.0983}
    ]}
  ]
}
